T1: human HVEM-Ig (human, UniProt Q92956 39-202)
T1 construct: Expressed and purified in house; also called HVEM-Fc; Herpes virus entry mediator-Ig
T1 sequence (looked up): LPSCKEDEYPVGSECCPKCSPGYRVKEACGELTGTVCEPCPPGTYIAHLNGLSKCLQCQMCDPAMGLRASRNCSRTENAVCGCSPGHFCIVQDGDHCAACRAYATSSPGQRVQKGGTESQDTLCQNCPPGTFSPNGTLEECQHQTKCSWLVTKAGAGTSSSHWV

T2: murine HVEM-Ig (mouse, UniProt Q80WM9 39-210)
T2 construct: Expressed and purified in house
T2 sequence (looked up): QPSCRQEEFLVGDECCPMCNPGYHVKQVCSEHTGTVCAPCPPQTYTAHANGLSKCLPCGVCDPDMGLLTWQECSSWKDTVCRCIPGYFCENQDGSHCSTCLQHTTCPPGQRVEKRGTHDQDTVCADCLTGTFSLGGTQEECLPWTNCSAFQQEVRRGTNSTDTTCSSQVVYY

B1: huLight (ligand, human, UniProt O43557 66-240, looked up)
ligand chain: GEMVTRLPDGPAGSWEQLIQERRSHEVNPAAHLTGANSSLTGSGGPLLWETQLGLAFLRGLSYHDGALVVTKAGYYYIYSKVQLGGVGCPLGLASTITHGLYKRTPRYPEELELLVSQQSPCGRATSSSRVWWDSSFLGGVVHLEAGEKVVVRVLDERLVRLRDGTRSYFGAFMV
notes: soluble, Flag-tagged; also called Flag-huLIGHT (control)
B2: anti-IGFR C06 Fab-hLIGHT fusion protein (C06-hLIGHT) (other)
heavy: EVQLLESGGGLVQPGGSLRLSCAASGFTFSIYRMQWVRQAPGKGLEWVSGISPSGGTTWYADSVKGRFTISRDNSKNTLYLQMNSLRAEDTAVYYCARWSGGSGYAFDIWGQGTMVTVSSASTKGPSVFPLAPSSKSTSGGTAALGCLVKDYFPEPVTVSWNSGALTSGVHTFPAVLQSSGLYSLSSVVTVPSSSLGTQTYICNVNHKPSNTKVDKKVEPKSCDKGGGGSGGGGSGGGGSGGGGSNPAAHLTGANSSLTGSGGPLLWETQLGLAFLRGLSYHDGALVVTKAGYYYIYSKVQLGGVGCPLGLASTITHGLYKRTPRYPEELELLVSQQSPCGRATSSSRVWWDSSFLGGVVHLEAGEEVVVRVLDERLVRLRDGTRSYFGAFMV
light: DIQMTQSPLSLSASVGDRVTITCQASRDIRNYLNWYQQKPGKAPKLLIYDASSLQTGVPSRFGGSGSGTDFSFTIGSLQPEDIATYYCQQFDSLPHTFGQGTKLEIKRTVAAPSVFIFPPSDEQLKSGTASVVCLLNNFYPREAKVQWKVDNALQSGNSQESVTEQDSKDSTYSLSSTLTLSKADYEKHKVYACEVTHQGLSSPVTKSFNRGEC
notes: Tested as culture medium of transiently transfected CHO cells; not measured for this fusion; also called pBIIBC06-256

Tests used:
human HVEM-Ig [1] = target: T1, human HVEM-Ig; assay: ELISA, huHVEM-Ig coated at 0.2 ug/ml, HRP anti-Flag mAb; the number is C of the printed 4-P fit (A 0.22, B 1.302, D 1.232, R^2 0.998)
Method: (§1) Human and murine ErbB2-Fc were obtained from R&D Systems. Wells of 96-well plates were coated with 2 ug/ml or 0.2 ug/ml of human or murine HER2-Fc by incubation overnight at 4-8° C. with either of these six proteins (80 ul/well of a 0.2 or 2 ug/ml solution in PBS). Wells were emptied, filled completely with a solution of PBS with 1% BSA (blocking buffer) and incubated at room temperature for 1 hour. Wells were emptied, washed twice PBS containing 0.05% Tween 20 (PBST) and filled with the samples (80 ul/well of 3× dilution series of the standard and supernatants in blocking buffer) prepared in another 96-well plate. […] After 1-hour incubation, the wells were emptied and filled with a solution of HRP substrate prepared freshly. The color was left to develop for 3 minutes and was stopped by addition of an equal volume of 1N H₂SO₄. Absorbance was measured at 450 nm using a Plate Reader (SpectraMax, Molecular Devices). The data was processed and graphs were created using SoftMax Pro software.
Human and murine HVEM-Ig were expressed and purified in house.

human LTβR-Ig [2] = target: T3, human LTβR-Ig (human, UniProt P36941 31-227); assay: ELISA, huLTBR-Ig coated at 0.2 ug/ml, HRP anti-Flag mAb; the number is C of the printed 4-P fit (A 0.164, B 0.898, D 1.528, R^2 0.999)
T3 construct: Expressed and purified in house; also called hLTbR-Ig; human LTBR-Ig
T3 sequence (P36941 31-227): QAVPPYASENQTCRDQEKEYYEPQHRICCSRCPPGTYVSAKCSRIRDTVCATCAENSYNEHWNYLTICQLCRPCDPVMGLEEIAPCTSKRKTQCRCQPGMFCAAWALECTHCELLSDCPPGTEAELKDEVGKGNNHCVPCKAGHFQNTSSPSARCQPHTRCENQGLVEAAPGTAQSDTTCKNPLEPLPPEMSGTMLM

murine HVEM-Ig [3] = target: T2, murine HVEM-Ig; assay: ELISA, muHVEM-Ig coated at 0.2 ug/ml, HRP anti-Flag mAb; the number is C of the printed 4-P fit (A 0.027, B 0.575, D 1.071, R^2 0.994)
human LTβR-Ig [4] = target: T3, human LTβR-Ig; assay: ELISA, huLTBR-Ig coated at 2 ug/ml, HRP anti-Flag mAb; the number is C of the printed 4-P fit y=(A-D)/(1+(x/C)^B)+D (A 0.103, B 0.763, D 1.654, R^2 0.999)
murine LTβR-Ig [5] = target: T4, murine LTβR-Ig (mouse, UniProt P50284 31-223); assay: ELISA, muLTBR-Ig coated at 2 ug/ml, HRP anti-Flag mAb; the number is C of the printed 4-P fit y=(A-D)/(1+(x/C)^B)+D (A 0.125, B 0.915, D 1.615, R^2 0.999)
T4 construct: Expressed and purified in house; also called mLTbR; murine LTBR-Ig
T4 sequence (P50284 31-223): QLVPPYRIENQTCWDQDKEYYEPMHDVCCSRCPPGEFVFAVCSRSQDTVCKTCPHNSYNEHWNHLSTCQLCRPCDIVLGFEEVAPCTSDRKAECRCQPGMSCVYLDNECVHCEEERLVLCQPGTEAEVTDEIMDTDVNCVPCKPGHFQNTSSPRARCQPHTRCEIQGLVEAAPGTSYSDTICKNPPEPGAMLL
Method: as §1
(§2) Human and murine LTBR-Ig were expressed and purified in house.

human HVEM-Ig [6] = target: T1, human HVEM-Ig; assay: ELISA, huHVEM-Ig coated at 2 ug/ml, HRP anti-Flag mAb; the number is C of the printed 4-P fit y=(A-D)/(1+(x/C)^B)+D (A 0.117, B 0.801, D 1.551, R^2 0.998)
murine HVEM-Ig [7] = target: T2, murine HVEM-Ig; assay: ELISA, muHVEM-Ig coated at 2 ug/ml, HRP anti-Flag mAb; the number is C of the printed 4-P fit y=(A-D)/(1+(x/C)^B)+D (A 0.143, B 0.757, D 1.559, R^2 0.999)
murine LTβR-Ig [8] = target: T4, murine LTβR-Ig; assay: ELISA, muLTBR-Ig coated at 0.2 ug/ml, HRP anti-Flag mAb; the number is C of the printed 4-P fit (A 0.044, B 0.606, D 1.329, R^2 0.999); the points end at OD about 1.1 at 10000 ng/ml, upper plateau not reached
Method: as §1, §2

human LTβR-Ig [9] = target: T3, human LTβR-Ig; assay: ELISA on LTbR-Ig, dilutions of medium of transfected CHO cells

Binder | EC50 (human HVEM-Ig [1]) [ng/mL] | EC50 (human LTβR-Ig [2]) [ng/mL] | EC50 (murine HVEM-Ig [3]) [ng/mL] | EC50 (human LTβR-Ig [4]) [ng/mL] | EC50 (murine LTβR-Ig [5]) [ng/mL] | EC50 (human HVEM-Ig [6]) [ng/mL] | EC50 (murine HVEM-Ig [7]) [ng/mL] | EC50 (murine LTβR-Ig [8]) [ng/mL] | binding result (human LTβR-Ig [9])
B1 | 1.27 | 1.33 | 18.6 | 2.1 | 2.39 | 1.3 | 1.34 | 810 | 
B2 |  |  |  |  |  |  |  |  | binds

— patent US20130101549A1 (Biogen, published 2013)
